# Assay results: patent EP4806514A2 (Lepu Biopharma Co., Ltd., dated 2025)
# T1: human CDH17, full length, expressed on cells (HEK293-hCDH17); AsPC-1, HCT-8, AGS, LoVo, KATO III, HT-29 tumor … (human, UniProt Q12864 23-832)
# T1 construct: also called human CDH17 expressed on tumor cells
# T1 sequence: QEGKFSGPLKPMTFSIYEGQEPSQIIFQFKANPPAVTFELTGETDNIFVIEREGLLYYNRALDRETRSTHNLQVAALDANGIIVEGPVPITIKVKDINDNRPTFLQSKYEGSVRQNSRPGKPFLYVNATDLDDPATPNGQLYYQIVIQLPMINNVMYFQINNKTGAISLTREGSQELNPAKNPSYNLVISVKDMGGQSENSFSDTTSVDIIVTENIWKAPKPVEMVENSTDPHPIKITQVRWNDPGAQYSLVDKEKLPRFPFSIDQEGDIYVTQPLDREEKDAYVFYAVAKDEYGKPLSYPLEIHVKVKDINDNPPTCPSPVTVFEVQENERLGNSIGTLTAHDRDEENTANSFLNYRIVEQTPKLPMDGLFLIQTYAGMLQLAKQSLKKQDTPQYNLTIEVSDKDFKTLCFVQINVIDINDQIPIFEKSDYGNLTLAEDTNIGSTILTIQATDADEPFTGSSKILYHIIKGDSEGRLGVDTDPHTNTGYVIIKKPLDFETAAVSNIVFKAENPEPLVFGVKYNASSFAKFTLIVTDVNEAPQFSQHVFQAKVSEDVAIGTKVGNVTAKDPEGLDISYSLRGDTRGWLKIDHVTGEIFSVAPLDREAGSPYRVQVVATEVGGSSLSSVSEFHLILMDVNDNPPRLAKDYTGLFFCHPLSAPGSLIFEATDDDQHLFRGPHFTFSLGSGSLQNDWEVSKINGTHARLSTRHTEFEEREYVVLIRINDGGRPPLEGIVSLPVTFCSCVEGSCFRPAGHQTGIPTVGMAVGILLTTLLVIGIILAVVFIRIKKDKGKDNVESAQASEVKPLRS
# T2: hCDH17-his (full length extracellular domain of human CDH17, Q23-M787, his tag at the C-terminal) (human, UniProt Q12864 23-787)
# T2 construct: Limits of the construct (UniProt Q12864, Q23-M787, C-terminal his tag); also called human CDH17-his protein; human CDH17 protein
# T2 sequence: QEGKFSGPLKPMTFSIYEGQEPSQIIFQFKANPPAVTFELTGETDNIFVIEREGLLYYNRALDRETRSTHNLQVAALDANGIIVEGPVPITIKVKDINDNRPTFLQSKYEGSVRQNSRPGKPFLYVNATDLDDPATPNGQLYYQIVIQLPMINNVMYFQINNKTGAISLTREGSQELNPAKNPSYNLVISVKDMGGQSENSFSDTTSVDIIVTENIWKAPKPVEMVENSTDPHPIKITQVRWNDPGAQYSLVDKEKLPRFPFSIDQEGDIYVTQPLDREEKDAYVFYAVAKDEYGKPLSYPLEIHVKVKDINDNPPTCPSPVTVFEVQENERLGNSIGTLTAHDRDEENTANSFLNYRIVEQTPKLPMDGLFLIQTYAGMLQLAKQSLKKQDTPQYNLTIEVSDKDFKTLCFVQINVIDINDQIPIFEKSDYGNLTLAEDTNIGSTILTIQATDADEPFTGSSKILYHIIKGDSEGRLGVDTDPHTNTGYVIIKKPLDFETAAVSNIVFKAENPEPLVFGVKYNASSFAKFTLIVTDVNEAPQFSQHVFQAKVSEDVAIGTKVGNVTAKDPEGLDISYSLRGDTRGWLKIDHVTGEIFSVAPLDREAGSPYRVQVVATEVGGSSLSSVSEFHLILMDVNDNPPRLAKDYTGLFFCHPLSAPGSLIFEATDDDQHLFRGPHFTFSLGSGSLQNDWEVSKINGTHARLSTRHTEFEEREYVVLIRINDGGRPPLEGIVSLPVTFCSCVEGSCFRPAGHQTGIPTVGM
# T3: human CDH16 protein (hCDH16-his, Novoprotein, Cat. No. CJ16) (human, UniProt O75309 19-786)
# T3 construct: Bought; also called human CDH16-his
# T3 sequence (looked up): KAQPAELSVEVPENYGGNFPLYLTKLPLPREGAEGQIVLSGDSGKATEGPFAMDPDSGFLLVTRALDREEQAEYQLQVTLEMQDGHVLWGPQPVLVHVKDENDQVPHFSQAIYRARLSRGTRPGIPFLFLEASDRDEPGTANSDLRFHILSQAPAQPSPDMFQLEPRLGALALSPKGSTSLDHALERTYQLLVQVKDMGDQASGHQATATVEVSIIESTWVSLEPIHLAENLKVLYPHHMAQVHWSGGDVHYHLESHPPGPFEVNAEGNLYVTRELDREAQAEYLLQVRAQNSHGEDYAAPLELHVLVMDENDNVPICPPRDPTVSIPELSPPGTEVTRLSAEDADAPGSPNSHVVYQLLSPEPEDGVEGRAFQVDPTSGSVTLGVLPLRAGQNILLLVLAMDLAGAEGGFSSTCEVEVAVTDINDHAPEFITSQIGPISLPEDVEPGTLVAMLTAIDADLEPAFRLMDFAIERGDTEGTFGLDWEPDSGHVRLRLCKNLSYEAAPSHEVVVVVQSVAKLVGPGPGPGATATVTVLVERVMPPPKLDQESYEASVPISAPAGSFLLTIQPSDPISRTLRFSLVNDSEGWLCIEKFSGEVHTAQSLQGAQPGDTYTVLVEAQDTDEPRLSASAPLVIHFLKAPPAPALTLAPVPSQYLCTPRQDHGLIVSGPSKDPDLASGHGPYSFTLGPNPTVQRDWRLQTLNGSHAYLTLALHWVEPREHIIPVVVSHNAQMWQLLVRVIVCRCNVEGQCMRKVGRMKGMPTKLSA
# Assays:
# [1] = target: T1, human CDH17, full length, expressed on …; assay: flow cytometry, LoVo, HCT-8 and AsPC1 cells
# [2] = target: T2, hCDH17-his (full length extracellular …); assay: SPR (Biacore 8K), two doses, antibody captured on Protein A chip, hCDH17-his at 25 nM and 100 nM
# [3] = target: T3, human CDH16 protein (hCDH16-his, …); assay: ELISA, hCDH16-his coated at 1 ug/mL
# [4] = target: T2, hCDH17-his (full length extracellular …); assay: ELISA, hCDH17-his coated at 2 ug/mL
# [5] = target: T1, human CDH17, full length, expressed on …; assay: flow cytometry, HEK293-hCDH17 cells
Binder,binding result [1],binding result [2],binding result [4],binding result [5],binding result [3]
"69E3H11-z12a20 (antibody, V domains shown) VH: QVQLVQSGAEVKKPGASVKVSCKASGYTFTTYWMHWVKQAPGQRLEWIGEIDPSDSYANYNQKFKGKATLTVDKSASTAYMELSSLRSEDTAVYYCALYYGYGDWGQGTTVTVSS VL: EIVLTQSPGTLSLSPGERATLSCSVSSSISRIHLHWYQQKPGQAPRLLIYRTSNLASGIPDRFSGSGSGTDFTLTISRLEPEDFAVYYCQQGSNLPLTFGQGTRLEIK",binds,binds,–,–,–
"69E3H11-z12a28 (antibody, V domains shown) VH: QVQLVQSGAEVKKPGASVKVSCKASGYTFTTYWMHWVKQAPGQRLEWIGEIDPSDSYANYNQKFKGKATLTVDKSASTAYMELSSLRSEDTAVYYCALYYGYGDWGQGTTVTVSS VL: EIVLTQSPGTLSLSPGERATLSCSVSSSISSIHLHWYQQKPGQAPRLLIYRTKNLASGIPDRFSGSGSGTDFTLTISRLEPEDFAVYYCQQGSNLPLTFGQGTRLEIK",binds,binds,–,–,–
"69E3H11-z12a26 (antibody, V domains shown) VH: QVQLVQSGAEVKKPGASVKVSCKASGYTFTTYWMHWVKQAPGQRLEWIGEIDPSDSYANYNQKFKGKATLTVDKSASTAYMELSSLRSEDTAVYYCALYYGYGDWGQGTTVTVSS VL: EIVLTQSPGTLSLSPGERATLSCSVSSSISSIHLHWYQQKPGQAPRLLIYRTRNLASGIPDRFSGSGSGTDFTLTISRLEPEDFAVYYCQQGSNLPLTFGQGTRLEIK",binds,binds,–,–,–
"69E3H11-z12a27 (antibody, V domains shown) VH: QVQLVQSGAEVKKPGASVKVSCKASGYTFTTYWMHWVKQAPGQRLEWIGEIDPSDSYANYNQKFKGKATLTVDKSASTAYMELSSLRSEDTAVYYCALYYGYGDWGQGTTVTVSS VL: EIVLTQSPGTLSLSPGERATLSCSVSSSISSIHLHWYQQKPGQAPRLLIYRTRNRASGIPDRFSGSGSGTDFTLTISRLEPEDFAVYYCQQGSNLPLTFGQGTRLEIK",binds,binds,–,–,–
"69E3H11-z12a21 (antibody, V domains shown) VH: QVQLVQSGAEVKKPGASVKVSCKASGYTFTTYWMHWVKQAPGQRLEWIGEIDPSDSYANYNQKFKGKATLTVDKSASTAYMELSSLRSEDTAVYYCALYYGYGDWGQGTTVTVSS VL: EIVLTQSPGTLSLSPGERATLSCSVSASISRIHLHWYQQKPGQAPRLLIYRTSNLASGIPDRFSGSGSGTDFTLTISRLEPEDFAVYYCQQGSNLPLTFGQGTRLEIK",binds,binds,–,–,–

# Now from value to binder, other results behind:
binding result [1],binding result [2],binding result [4],binding result [5],Binder,binding result [3]
binds,binds,–,–,"69E3H11-z12a42 (antibody, V domains shown) VH: QVQLVQSGAEVKKPGASVKVSCKASGYTFTTYWMHWVKQAPGQRLEWIGEIDPSDSYANYNQKFKGKATLTVDKSASTAYMELSSLRSEDTAVYYCALYYGYGDWGQGTTVTVSS VL: EIVLTQSPGTLSLSPGERATLSCSVSASISRIHLHWYQQKPGQAPRLLIYRTRNRASGIPDRFSGSGSGTDFTLTISRLEPEDFAVYYCQQGSNLPLTFGQGTRLEIK",–
–,–,binds,binds,"120B10C5 chimeric mAb (antibody, V domains shown, Mouse variable regions fused to human IgG1 constant region) VH: QVQLQQSGAELAKPGASVKLSCRTSGYTFTNYWMHWVKQRPGQGLEWIGYINPSSGYTKYNQKFKDKATLTADKSSSTAYMQLSSLTYEDSAVHYCARSLNYYDSGYWYFDVWGTGTAVTVSS VL: DIVLTQSPASLAVSLGQRATISCRASQSVSTSSYSYMHWYQQKPGQPPKLLIKYASNLESRVPARFSGSGSGTDFTLNIHPVEEEDSATYYCQHSWEIPWTFGGGTKLEIK",no binding (tested: titrated from 100 nM)
–,–,binds,binds,"152A1D12 chimeric mAb (antibody, V domains shown, Mouse variable regions fused to human IgG1 constant region) VH: EVQLQQSGPELVKPGASVKISCKASGYTFTDYNMHWVKQSHGKSLEWIGYIYRNNGYNGYNQKFKNKATLTVDSSSSTAYMELRSLTSEDSAVYYCARNYWRGAMDYWGQGTSVTVSS VL: QIVLTQSPAIMSASPGEKVTMTCSASSSISYMHWYQQKPGTSPKRWIYDTSKLASGVPARFSGSGSGTSYSLTISSMEAEDAGTYYCHQRSSYPWTFGGGTKLEIK",no binding (tested: titrated from 100 nM)
–,–,binds,binds,"16C18 chimeric mAb (antibody, V domains shown, also called 16C8) VH: QVQLQQSGAELAKPGTSVKMSCKASGYNFTNYWMNWVKQRPGQGLEWIGTFNPSYGYTEYNQKFKDKAILTADKSSSTAYMQLNSLTSEDSAVYYCARRSSHFDYWGQGTTLTVSS VL: DIVMSQSPSSLAVSAGEKVTMSCKSSQSLLNSRTRTNYLAWYQQKPGQSPKLLIYWASTRESGVPDRFTGSGSGTDFTLTISSVQAEDLAVYYCKQSYNLPTFGGGTKLEIK",no binding (tested: titrated from 100 nM)
–,–,binds,binds,"143H10E4 chimeric mAb (antibody, V domains shown, Mouse variable regions fused to human IgG1 constant region) VH: QVQLQQSDAELVKPGASVKISCKASGSTFTDHTIHWVKQRPEQGLEWIGYIYPVYGYTQNNEKFKGKATLTADKSSSTAYMQLNSLTSEDSAVYFCARSRDSNPYYFDYWGQGTTLTVSS VL: EIVLTQSPALMAASPGEKVTITCTVSSSISSSNLHWYQQKSGTSPKPWIYGTSNLASGVPVRFSGSGSGTSYSLTISSMEAEDAATYYCQQWSSYPFTFGSGTKLKMK",no binding (tested: titrated from 100 nM)
–,–,binds,binds,"134C7B1 chimeric mAb (antibody, V domains shown, Mouse variable regions fused to human IgG1 constant region) VH: AVQLQQSGPELLKPGASVKISCKASGYTFTDYTMHWVKQSHGKSLEWIGGINPNYGGTSYNETFKDKATLTVDKSSNTAYMELRSLTSEDSAVYYCARIPYGSYPMDYWGQGTSVTVSS VL: DIVMSQSPSSLTVSVGEKVTMSCKSSQSLLYSSNQKIYLAWYQQKPGQSPKLLISWASTRESGVPDRFTGSGSGTDFTLTISSVKAEDLADYYCQQYYRYRTFGGGTKLEIK",no binding (tested: titrated from 100 nM)
